Experimental data published in patent publication US20040241754A1, “Modulating neuronal plasticity” (The Salk Institute for Biological Studies, priority 2003, published 2004).
Entries after “also recorded” stand apart in the source; their conditions may differ. Ends that are not written are not given here.

Key:
[1] = test system: mossy fiber synapses of hippocampal CA3 pyramidal neurons; test: Mossy fiber LTP, whole-cell patch clamp in hippocampal slices; format: cell-based, mice; conditions: for LTP (potentiation of the EPSC after tetanic stimulation): peptide 50 μM in patch electrode (postsynaptic), 25 to 30 minutes after tetanic stimulation; for LTP PPR (paired pulse ratio after LTP induction) / control PPR (paired pulse ratio before LTP induction): 40 ms interval; for effect on tetanus induced LTP: peptide in patch electrode (postsynaptic); for LTP (potentiation of EPSCs after tetanic stimulation): bath application 5 μg/ml
Description: The role of the GluR2 subunit in LTP at mossy fiber terminals was evaluated in whole cell patch clamp experiments using hippocampal CA3 pyramidal neurons. Briefly, transverse hippocampal slices (350 μm) were made from P12-18 mice (strain 129SvEv) as previously described (Contractor et al., Neuron 29, 209-16. (2001)). Slices were transferred to a recording chamber, and whole-cell patch clamp recordings made from visually identified pyramidal cells in the CA3 region of the hippocampus. The recording electrode (i.e., patch electrode) is filled with an “internal” solution described below. A seal between the glass of the electrode and the membrane of the cell is made. The seal is then “broken through” by pushing the electrode through the membrane to gain low resistance access to the cell interior and enable voltage clamping of the cell membrane. This also allows dialysis of the cell with test reagents such as peptides and antibodies. A stimulating electrode is attached to a current source and allows current to stimulate action potentials while a reference electrode is placed in the recording bath. The composition of the internal solution was: 95 mM CsF, 25 mM CsCl, 10 mM Cs-HEPES, 10 mM Cs-EGTA, 2 mM NaCl, 2 mM Mg-ATP, 10 mM QX-314, 5 mM TEA-Cl, 5 mM 4-AP, pH adjusted to 7.3 with CsOH.
Peptides were added directly to the internal solution on the day of the experiment from frozen stocks in protease inhibitors made up in phosphate buffered saline (PBS). To avoid leakage of peptides or antibodies into the extracellular space, pipette tips were filled with normal internal solution and then the pipette was backfilled with peptide/antibody containing internal fluid. The final concentration of peptides was 50 μM in all experiments. The final concentration of protease inhibitors were: bestatin 2 μg/ml, leupeptin 25 ng/ml, pepstatin 35 ng/ml, aprotinin 100 ng/ml.
In control experiments where peptides were not included, internal solutions were made up in exactly the same way with protease inhibitors in PBS but lacking any added peptide. Antibodies were made up in PBS stock and added directly to the internal solution at a final concentration of 20 μg/ml. The pH and osmolarity of all internal solutions were checked before use. Series resistances (Rs) were generally <10M and were continuously monitored throughout the duration of the experiment. […] Experiments using mutant mice were performed with heterozygous breedings blind to the genotype of the animal.
Mossy fiber EPSCs were evoked with a monopolar glass electrode positioned in the stratum lucidum. EPSCs were evaluated using a 40 ms interval between recordings. All recordings were made in the continuous presence of bicuculline (10 μM), picrotoxin (50 μM) and the NMDA receptor antagonist D-AP5 [D(-)-2-Amino-5-phosphonopentanoic acid; 50 μM]. The group II mGluR agonist, LCCG-1 (10 μM), which selectively depresses mossy fiber transmission, was applied at the end of each experiment. LTP was induced by tetanic stimulation comprising three 1 s stimulations (100 Hz) with a 10 s interval. Data are presented as mean±SEM. Parameters were compared using the Student's unpaired t-test where not specified, and the K-S test, p<0.05 was considered significant.
Cumulative probability is determined by ranking the EPSC data set from the highest to the lowest value from 20 to 30 minutes post tetanization. Each point is graphed with its corresponding percentile. […] The lowest LTP value was about 40% signified by the lowest point on the 1 st graph (open circles) and the largest LTP was about 160%.

[2] = test system: mossy fiber synapses of hippocampal CA3 pyramidal neurons; test: Forskolin-mediated potentiation of mossy fiber EPSCs; format: cell-based, mice; conditions: for forskolin potentiation of mossy fiber EPSCs after pre-application of Fc fusion protein: Fc fusion protein bath applied before forskolin; for effect on forskolin enhancement / mossy fiber transmission: bath application
GRIP PDZ4-6 = biological target: T1, GRIP PDZ4-6 (Rattus norvegicus, UniProt P97879); test: Competitive binding of 35S-EphB2 to His-GRIP-PDZ4-6; conditions: concentrations of up to 10 μM peptide; listed as GluR2ctSC
T1 construct: corresponding to GRIP1 (amino acid 448-792); made in house; host or cells: E. coli BL21
T1 sequence (P97879 448-792): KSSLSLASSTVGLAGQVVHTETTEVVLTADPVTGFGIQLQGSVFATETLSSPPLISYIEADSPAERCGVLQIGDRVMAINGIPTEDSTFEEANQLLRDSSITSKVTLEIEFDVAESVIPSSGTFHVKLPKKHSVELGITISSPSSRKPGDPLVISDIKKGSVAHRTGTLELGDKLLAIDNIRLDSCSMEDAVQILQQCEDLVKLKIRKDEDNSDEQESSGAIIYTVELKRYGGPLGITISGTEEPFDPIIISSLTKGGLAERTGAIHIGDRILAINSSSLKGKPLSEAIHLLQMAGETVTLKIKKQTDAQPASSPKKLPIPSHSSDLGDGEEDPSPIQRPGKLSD
Description: A competitive binding assay was prepared to determine if the LTP inhibitory effects of the GluR2ct peptide were mediated through disruption of binding between Eph receptors and PDZ domain 6 of GRIP (Torres et al., Neuron 21, 1453-63. (1998)) as opposed to disruption of binding between the GluR2 subunit and the GluR2-binding PDZ 4 and 5 domains of GRIP (Dong et al., Nature 386, 279-84. (1997)). For this purpose, a binding assay was established between GRIP PDZ domain fragments (His-GRIP-PDZ4-6) and an EphB2 carboxy terminal fusion protein labeled with ^35S-methionine (^35S-EphB2).
Briefly, the carboxy terminal region of EphB2 corresponding to mouse EphB2 receptor (amino acid 930-993) was generated by PCR from mouse brain library and subcloned into pGEX2TK (Pharmacia). The GRIP(PDZ4-6) construct, corresponding to GRIP1 (amino acid 448-792) was obtained by PCR from an adult rat hippocampal library and subcloned into pRSET vector. E coli (strain BL21) were transformed with His-GRIP(PDZ4-6) and GST-EphB2 and protein production induced with IPTG. GST-EphB2 protein was purified on glutathionine beads and ^35S-EphB2 cleaved from GST with thrombin (1 U/μg). GRIP(PDZ4-6) protein was purified on Ni-NTA agarose, and eluted with imadazole. ^35S-EphB2 (50 nM) was incubated with (15 μg) of His-GRIP(PDZ4-6) protein in PBS buffer with protease inhibitors for 2 hrs at 22° C. in the absence or presence of peptides. ^35S-EphB2 binding to His-GRIP(PDZ4-6) was determined after a 45 min incubation with Ni-NTA agarose and vacuum filtration onto Whatman GFB filter circles (pretreated with 3% BSA). Filters were washed with ice-cold PBS buffer, allowed to equilibrate overnight in ECOLUME scintillation cocktail (ICN pharmaceuticals, Irvine Calif.), and specific counts measured in a scintillation counter. Non-specific binding was defined as the residual binding measured in the absence of His-GRIP(PDZ4-6).

[3] = biological target: presynaptic ephrin-B ligands; test: cell-based or functional assay
[4] = peptide 50 μM in patch electrode
[5] = Fc fusion protein, bath application

## LHLHGTGIQV [EphA7 peptide, reference compound]
[1]
  LTP (potentiation of the EPSC after tetanic stimulation): 250±46%
[1]; [4]
  LTP PPR (paired pulse ratio after LTP induction): 2.3±0.22
  control PPR (paired pulse ratio before LTP induction): 2.8±0.15
[1]; peptide 50 μM in patch electrode, immediately following tetanic stimulation
  PTP (post-tetanic potentiation): 990±180%
[1]; peptide in patch electrode
  paired pulse ratio after LTP induction versus pretetanic: significantly reduced relative to pretetanic recording

## C=C[C@@]1(C)CC(=O)[C@]2(O)[C@@]3(C)[C@@H](O)CCC(C)(C)[C@@H]3[C@H](O)[C@H](OC(C)=O)[C@@]2(C)O1 [forskolin, reference compound]
[2]; bath application of forskolin alone, 20-30 minutes after application
  potentiation of mossy fiber EPSCs by forskolin: 275±38%

## N[C@H](C(=O)O)[C@H]1C[C@@H]1C(=O)O [LCCG-1, (2S,1′S,2′S)-2-(carboxycyclopropyl)glycine, reference compound]
[1]; applied at the end of each experiment, 10 μM
  effect on mossy fiber EPSC: caused inhibition of the EPSC

## NVIYVKSEIG [R2ctSC, reference compound]
[1]
  LTP (potentiation of the EPSC after tetanic stimulation): 200±11%
  effect on tetanus induced LTP: little effect on induction of LTP
[1]; [4]
  LTP PPR (paired pulse ratio after LTP induction): 2.4±0.10
  control PPR (paired pulse ratio before LTP induction): 3.1±0.19
[1]; peptide in patch electrode
  effect on basal synaptic transmission / basal EPSC amplitudes: stable
[1]; listed as GluR2ctSC
  effect on tetanus induced LTP: do not inhibit LTP
GRIP PDZ4-6
  displacement of labeled EphB2 from GRIP PDZ4-6: unable to displace binding; also recorded: do not inhibit binding of EphB2 to GRIP

B1: EphB2-Fc fusion protein (Fc fusion, mouse, not shown: a dimerising Fc or GST)
chain (part 1 of 2): VEETLMDSTTATAELGWMVHPPSGWEEVSGYDENMNTIRTYQVCNVFESSQNNWLRTKFIRRRGAHRIHVEMKFSVRDCSSIPSVPGSCKETFNLYYYEADFDLATKTFPNWMENPWVKVDTIAADESFSQVDLGGRVMKINTEVRSFGPVSRNGFYLAFQDYGGCMSLIAVRVFYRKCPRIIQNGAIFQETLSGAESTSLVAARGSCIANAEEVDVPIKLYCNGDGEWLVPIGRCMCKAGFEAVENGTVCRGCPSGTFKANQGDEACTHCPINSRTTSEGATNCVCRNGYYRADLDPLDMPCTTIPSAPQAVISSVNETSLMLEWTPPRDSGGREDLVYNIICKSCGSGRGACTRCGDNVQYAPRQLGLTEPRIYISDLLAHTQYTFEIQAVNGVTDQSPFSPQFASVNITTNQAAPSAVSIMHQVSRTVDSITLSWSQPDQPNGVILDYELQYYEKELSEYNATAIKSPTNTVTVQGLKAGAIYVFQVRARTVAGYGRYSGKMYFQTMTEAEYQTSIKEKLPLIVGDIEGRMD
chain (part 2 of 2): HHHHH
[3]
  LTP after tetanic stimulation in the presence of EphB2-Fc: 134%
  basal EPSC amplitude during bath application (5 µg/ml): 145%
  forskolin potentiation of mossy fiber EPSCs 30 mins after washout, after EphB2-Fc: 118%
  post-tetanic potentiation: 420%
  potentiation of baseline EPSC amplitudes on bath application: 148%

B2: EphB2-Fc: mouse EphB2 (Met 1 to Lys 546), a linker, Human gamma heavy chain (Pro 100 to Lys 330) and (His)5 (protein)
chain (part 1 of 2): VEETLMDSTTATAELGWMVHPPSGWEEVSGYDENMNTIRTYQVCNVFESSQNNWLRTKFIRRRGAHRIHVEMKFSVRDCSSIPSVPGSCKETFNLYYYEADFDLATKTFPNWMENPWVKVDTIAADESFSQVDLGGRVMKINTEVRSFGPVSRNGFYLAFQDYGGCMSLIAVRVFYRKCPRIIQNGAIFQETLSGAESTSLVAARGSCIANAEEVDVPIKLYCNGDGEWLVPIGRCMCKAGFEAVENGTVCRGCPSGTFKANQGDEACTHCPINSRTTSEGATNCVCRNGYYRADLDPLDMPCTTIPSAPQAVISSVNETSLMLEWTPPRDSGGREDLVYNIICKSCGSGRGACTRCGDNVQYAPRQLGLTEPRIYISDLLAHTQYTFEIQAVNGVTDQSPFSPQFASVNITTNQAAPSAVSIMHQVSRTVDSITLSWSQPDQPNGVILDYELQYYEKELSEYNATAIKSPTNTVTVQGLKAGAIYVFQVRARTVAGYGRYSGKMYFQTMTEAEYQTSIKEKLPLIVGDIEGRMD
chain (part 2 of 2): HHHHH
modifications: left off: a dimerising Fc or GST
[1]; [5]
  LTP PPR: 2.2 ±0.2
  PTP (post-tetanic potentiation): 420±85%
  control PPR: 2.5±0.3
  effect on LTP induction: inhibits subsequent tetanus induced LTP
  paired pulse ratio, effect: small, non-significant reduction in the baseline PPR; also recorded: not significantly reduced
[1]; Fc fusion protein
  LTP (potentiation of EPSCs after tetanic stimulation): 134±13%
[1]; bath application 5 μg/ml for twenty minutes during baseline recording
  increase in the basal EPSC amplitude: 145±13%
[2]
  forskolin potentiation of mossy fiber EPSCs after pre-application of Fc fusion protein: 118±10%
  effect on forskolin enhancement / mossy fiber transmission: inhibits subsequent forskolin effects
[2]; bath applied before forskolin
  potentiation of baseline amplitudes: 148±19%

B3: ephrin-B1-Fc: mouse ephrin (Met 1 to Ser 229), a linker, Human gamma heavy chain (Pro 100 to Lys 330) and (His)5 (protein)
chain (part 1 of 2): ATPLAKNLEPVSWSSLNPKFLSGKGLVIYPKIGDKLDIICPRAEAGRPYEYYKLYLVRPEQAAACSTVLDPNVLVTCNKPHQEIRFTIKFQEFSPNYMGLEFKKYHDYYITSTSNGSLEGLENREGGVCRTRTMKIVMKVGQDPNAVTPEQLTTSRPSKESDNTVKTATQAPGRGSQGDSDGKHETVNQEEKSGPGAGGGGSGDSIEGRMD
chain (part 2 of 2): HHHHH
modifications: left off: a dimerising Fc or GST
[1]; [5]
  PTP (post-tetanic potentiation): 430±100%
  effect on LTP induction: significantly impair LTP induction
  effect on basal synaptic transmission / baseline EPSC amplitudes: did not alter the baseline EPSC amplitudes; also recorded: does not affect basal transmission
  effect on post-tetanic potentiation / short-term plasticity: significantly impaired
  paired pulse ratio, effect: no significant difference in PPR
[1]; Fc fusion protein
  LTP (potentiation of EPSCs after tetanic stimulation): 139±12%
[2]
  forskolin potentiation of mossy fiber EPSCs after pre-application of Fc fusion protein: 219±15%
  effect on forskolin enhancement / mossy fiber transmission: does not affect Forskolin enhancement
